Source: patent US20070093443A1

Molecular target: T1, alpha-2 macroglobulin (in human plasma) (human) (UniProt P01023)
T1 sequence (looked up): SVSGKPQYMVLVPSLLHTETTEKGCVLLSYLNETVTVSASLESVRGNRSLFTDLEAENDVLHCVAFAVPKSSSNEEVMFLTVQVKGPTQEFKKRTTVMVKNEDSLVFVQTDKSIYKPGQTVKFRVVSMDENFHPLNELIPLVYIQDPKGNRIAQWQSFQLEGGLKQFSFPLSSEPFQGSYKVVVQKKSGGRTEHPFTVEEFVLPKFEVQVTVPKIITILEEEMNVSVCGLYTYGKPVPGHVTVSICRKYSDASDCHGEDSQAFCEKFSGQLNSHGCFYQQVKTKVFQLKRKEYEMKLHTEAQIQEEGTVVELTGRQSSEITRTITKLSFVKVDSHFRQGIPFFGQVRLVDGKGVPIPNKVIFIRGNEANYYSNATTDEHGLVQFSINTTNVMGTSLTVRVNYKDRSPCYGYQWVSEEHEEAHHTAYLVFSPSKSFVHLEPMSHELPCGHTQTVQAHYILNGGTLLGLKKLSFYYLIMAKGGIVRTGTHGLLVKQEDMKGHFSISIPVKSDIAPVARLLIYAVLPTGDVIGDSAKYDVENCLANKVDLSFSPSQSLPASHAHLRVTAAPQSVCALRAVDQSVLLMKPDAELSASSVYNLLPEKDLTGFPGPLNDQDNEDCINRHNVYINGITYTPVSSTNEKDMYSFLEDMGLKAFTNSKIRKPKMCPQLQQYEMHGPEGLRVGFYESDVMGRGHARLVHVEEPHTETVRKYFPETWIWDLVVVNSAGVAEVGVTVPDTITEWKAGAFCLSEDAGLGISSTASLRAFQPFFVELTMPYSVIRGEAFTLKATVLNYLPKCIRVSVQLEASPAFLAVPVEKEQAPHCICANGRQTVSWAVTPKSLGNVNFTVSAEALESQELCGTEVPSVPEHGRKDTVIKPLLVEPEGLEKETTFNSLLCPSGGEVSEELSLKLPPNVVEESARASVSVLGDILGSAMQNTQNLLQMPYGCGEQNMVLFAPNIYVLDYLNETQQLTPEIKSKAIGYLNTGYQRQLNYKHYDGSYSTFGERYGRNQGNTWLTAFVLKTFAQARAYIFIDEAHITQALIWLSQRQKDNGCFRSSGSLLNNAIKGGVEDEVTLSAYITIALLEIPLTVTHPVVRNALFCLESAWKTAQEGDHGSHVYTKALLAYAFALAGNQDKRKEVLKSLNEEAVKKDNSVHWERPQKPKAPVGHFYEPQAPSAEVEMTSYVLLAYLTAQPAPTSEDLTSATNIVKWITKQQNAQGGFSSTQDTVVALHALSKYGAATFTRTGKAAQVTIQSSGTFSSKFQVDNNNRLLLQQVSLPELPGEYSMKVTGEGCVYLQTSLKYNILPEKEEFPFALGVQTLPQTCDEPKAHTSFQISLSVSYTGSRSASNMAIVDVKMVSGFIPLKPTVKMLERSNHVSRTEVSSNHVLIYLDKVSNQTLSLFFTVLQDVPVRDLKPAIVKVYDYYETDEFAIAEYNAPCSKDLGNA
Experiment: Ac-RQAR-AMC activity of protease after 5 min in human citrated plasma, with and without M84R ecotin

B1: modified MT-SP1 CB484 (I41T/Y146E/Q175D/K224F) protease domain (enzyme)
chain: VVGGTDADEGEWPWQVSLHALGQGHTCGASLISPNWLVSAAHCYIDDRGFRYSDPTQWTAFLGLHDQSQRSAPGVQERRLKRIISHPFFNDFTFDYDIALLELEKPAEYSSMVRPICLPDASHVFPAGKAIWVTGWGHTQEGGTGALILQKGEIRVINQTTCENLLPQDITPRMMCVGFLSGGVDSCQGDSGGPLSSVEADGRIFQAGVVSWGDGCAQRNFPGVYTRLPLFRDWIKENTGV
% Unbound by a2M: 94%
